Assay results reported in patent publication US20220119496A1, “INHIBITORS OF CYSTEINE PEPTIDASES ISOLATED FROM NATURAL RAW MATERIALS AND USE OF THE INHIBITORS IN MEDICINE AND VETERINARY MEDICINE” (priority 2019, published 2022).
Values joined by “and” are separate entries in the source; they are usually repeats but may differ in a detail not shown here. Equal values may be shown once.

What was measured:
[1] = tested on: cysteine gingipain in dogs gingival pockets; settings: as disclosed in PL 428931; cited from earlier work
[2] = tested on: cysteine gingipain in dogs gingival pockets; assay: In vitro inhibition of cysteine proteases in gingival pocket fluid of dogs (BANA); format: biochemical; set-up: key to Cysteine gingipain activity after adding cystatin: enzyme units; 1 U releases 1.0 nmol β-naphthylamine per hour; settings: 40 ng cystatin
Description: (§1) A solution containing known cystatin from egg white with a concentration of 0.02% and activity of 12 U/mg and 20% glycerin was used to rub the gums of dogs (once a day) and added 0.2 ml to a bowl with 200 ml drinking water (1 mU)/ml cystatin) for 4-6 weeks. Liquids from gingival pockets were removed using plaque paper, which was placed in 1 ml saline and frozen at −80° C., before removing plaque calculus. Then, after the aforementioned cystatin therapy from egg white, fluids from the gingival pockets were taken again in an analogous manner and frozen. After obtaining the desired amount of samples, they were thawed, sonicated, centrifuged to then determine the activity of cysteine gingipain in 100 μL samples using a BANA substrate (Benzoyl-arginyl-beta-naphthylamide). Test samples with a volume of 100 μl were preincubated at 37° C. in 0.01 M phosphate buffer pH 6.0 with the addition of 1 μM DL-cysteine and 2 μM EDTA for 10 minutes, then a solution of N-benzoyl DL-arginyl hydrochloride-β-naphthylamide (BANA) so that its final concentration in the test sample was 1.5 mM, and then incubated under these conditions for 30 minutes. After this time, the reaction was stopped by determining the colorimetrically released β-naphthylamine.
Standard tests for which the final result was determined were prepared in parallel with the tested samples, which were solutions containing all components as in the actual tests, except that after adding the BANA substrate the reactions were immediately stopped and the colorimetrically determined free β-naphthylamine was determined. […]
Before periodontal removal, dogs with periodontal disease collected fluid from the gingival pockets using tissue strips that were placed in 1 mL of saline. […] Various amounts of cystatin were added to the test solution, and then the protease activity was determined using the BANA substrate as in Example 1.

[3] = tested on: cysteine gingipain in gingival pocket fluids; assay: In vivo inhibition of cysteine gingipain activity in dogs (gums rubbed and drinking water with cystatin)
Description: as §1
Standard tests for which the final result was determined were prepared in parallel with the tested samples, which were solutions containing all components as in the actual tests, except that after adding the BANA substrate the reactions were immediately stopped and the colorimetrically determined free β-naphthylamine was determined. As one unit of enzymatic activity of cysteine proteinases is the amount of enzyme which releases 1.0 nmole of β-naphthylamine from the substrate within one hour under the described incubation conditions, whereas as an inhibitor unit—the amount that inhibits 1 enzyme unit.

[4] = Storage stability of inhibitory activity; format: physicochemical; settings: about 4° C.
Excerpt: The protein fractions are combined and the whole is subjected to separation on a membrane permeable compounds of a certain size. Because at this stage the interest is focused on the isolation of peptides and not cystatins, the combined protein fractions were not stabilized with glycerol or other glycols. The main reason for not using a stabilizer is the high probability of blocking the filters used in the separation stage. The combined protein fractions (eluate from the affinity chromatography column) are filtered as quickly as possible using membrane permeable to 3 kDa molecules, and then the low molecular filtrate is desalted on membrane permeable to 700 Da. […] The resulting low molecular weight oligopeptides are able to inhibit cysteine peptidase enzymes such as autogenic cathepsins or bacterial enzymes. The low molecular weight cysteine peptidase inhibitors of the invention thus obtained are stored either in a refrigerator (+4° C.) or in a freezer.
Inhibitory activity of cystatin and several-amino acid inhibitors of cysteine peptidases were determined in relation to cysteine gingipain in gingival pocket fluids and cysteine cathepsins in cancerous tissues and veins of people with atherosclerosis or native cathepsin B.

[5] = tested on: cysteine gingipain in gingival pocket fluids; assay: Inhibition of cysteine gingipain activity in gingival pocket fluids of patients with periodontitis (BApNA substrate); format: biochemical, human; settings: not exceeded even with excess inhibitor
Description: In gingival pocket fluids, cysteine gingipain activity was determined as the amount of p-nitroaniline released from BApNA (Benzoyl-DL Arginyl-para-nitroanilide) substrates, or Z-Arg-Arg-pNA (Benzol-DLArg-Arg-β-p-nitroanilide).
The amount of cysteine peptidases that was used as enzymatic activity was that led to the degradation of the substrates used and release of micromoles of p-nitroaniline from them within 1 minute at 37° C.
Inhibition was performed in 10 fluid samples from gingival pockets taken from patients diagnosed with periodontitis.
Determination of gingipain activity in fluids taken from gingival pockets: Fluid from the gingival pockets is taken with small strips of cellulose paper, which are placed in a tube containing 1 ml of PBS. The solution is sonicated for 30 sec on ice, then centrifuged at 10,000 g for 10 min.
To 1 ml of 20 mM pH 6.0 phosphate buffer containing 2 mM EDTA and 1 mM DTT is added 100 μl gingipain solution, then 20-100 μL inhibitor solution is added, and 20 μL BApNA substrate solution (Benzoyl DL Arginyl para-nitroanilide) 40/mg/ml DMSO. […] Absorbance is measured at 405 nm on a spectrophotometer relative to the control (without inhibitors and papain). Gingipain activity is measured by the amount of para-nitroaniline released.

[6] = tested on: cysteine gingipain in gingival pocket fluids; assay: In vitro inhibition of cysteine gingipain activity in human gingival pocket fluids by egg white cystatin (BANA substrate); format: biochemical; settings: Table 6
Description: as §1
As one unit of enzymatic activity of cysteine proteinases is the amount of enzyme which releases 1.0 nmole of β-naphthylamine from the substrate within one hour under the described incubation conditions, whereas as an inhibitor unit—the amount that inhibits 1 enzyme unit.
Patients with periodontitis were taken from the gingival pockets before removing the plaque using tissue strips, which were placed in 1 ml of saline and then frozen at −80° C. […] The solution was sonicated, centrifuged and 100 μl of supernatant was taken for determinations. Various amounts of cystatin were added to the test solution, and then the protease activity was determined by the BANA test as in Example 1.

[7] = tested on: cysteine gingipain in gingival pocket fluids; settings: as disclosed in PL 428931; cited from earlier work
Porphyromonas gingivalis = settings: concentration of 50 WI; cited from earlier work
chicken embryo = assay: Toxicity in chicken embryo studies; format: in vivo
[8] = tested on: cysteine gingipain in gingival pocket fluids; assay: Dog case study, cystatin in drinking water and gum rubbing; format: in vivo; settings: one dog
Description: A female mixed breed, weighing about 5 kg and 7 years old, became dejected and avoided food, staggered and turned over, and purulent discharge leaked from her nose. […] In dormancy, the stone was removed along with four molars on the left. During sleep, gingival pocket fluids were removed from 3 gingival pockets on the right using strips of paper and placed in tubes containing 1 ml of saline. After grinding the paper with ultrasound and centrifugation, the activity of cysteine gingipain was determined in solutions. Their activity ranged from 1.35 to 0.89 units based on 1.0 ml of liquid based on the amount of β-naphthylamine released. For 4 weeks, the dog was given water to drink with the addition of cystatin from egg protein at a concentration of about 10-6% and rubbed the gums with a pad impregnated with 0.001% cystatin from egg white 3-4 times a day. […] After 6 years of surgery, there were no changes in the periodontium. After some time, the dog got used to rubbing his gums, which probably saved him from changes in the periodontium.

[9] = individual samples 1-11, after 4-6 weeks cystatin treatment vs before plaque removal, listed as cystatin solution from egg white

B1: cystatin from egg white: known cystatin from egg white, activity 12 U/mg, stabilized with glycerol; natural cysteine peptidase inhibitor (protein, UniProt P01038 24-139, looked up)
Cystatin: SEDRSRLLGAPVPVDENDEGLQRALQFAMAEYNRASNDKYSSRVVRVISAKRQLVSGIKYILQVEIGRTTCPKSSGDLQSCEFHDEPEMAKYTTCTFVVYSIPWLNQIKLLESKCQ
blocked total proteolytic activity, dogs [1]: about 90%
% inhibited activity, Average ([2]; average of 19 dogs): 87.28 ± 8.92%
% remaining activity, Average ([2]; average of 19 dogs): 12.72 ± 8.92%
Cysteine gingipain activity after adding cystatin ([2]; dogs gingival pocket fluid, individual samples 1-19, 12 units/mg protein): 0.06 (2×) and 0.04 (3×) and 0.03 (3×) and 0.08 and 0.02 (2×) and 0.07 (2×) and 0.09 and 0.15 and 0.24 and 0.13 (2×) and 0.23
% inhibited activity, Average ([3]; average of 11 samples): Approximately 67%
% remaining activity, Average ([3]; average of 11 samples): 32.97 ± 21.49%
% inhibited activity, Average ([3]; average of 11 samples, listed as cystatin solution from egg white): 67.05 ± 21.52%
% inhibited activity [3, 9]: 94.79% and 77.31% and 79.23% and 58.9% and 64.33% and 93.50% and 24.24% and 81.26% and 67.68% and 54.78% and 41.55%
% remaining activity [3, 9]: 5.51% and 22.69% and 20.77% and 41.10% and 35.67% and 6.50% and 75.76% and 18.73% and 32.32% and 45.22% and 58.45%
inhibitory activity after storage for several months in the refrigerator [4]: dimerizes and loses its biological activity
inhibition of proteolytic activity in gingival pocket fluids compared to total activity [5]: 85%
E/F*100 inhibited activity, Average ([6]; average of 23 samples): 15.89 ± 6.28%
CP activity after adding cystatin ([6]; individual samples 1-23): 0.47 U/ml (3×) and 0.61 U/ml and 1.16 U/ml and 0.98 U/ml (2×) and 1.12 U/ml (2×) and 0.75 U/ml and 0.34 U/ml and 0.87 U/ml and 1.22 U/ml and 1.11 U/ml and 2.19 U/ml and 2.52 U/ml and 1.97 U/ml and 3.96 U/ml and 2.18 U/ml and 3.11 U/ml and 1.28 U/ml and 2.74 U/ml and 1.73 U/ml
E/F*100 inhibited activity ([6]; individual samples 1-23): 18.29% and 28.11% and 10.59% and 10.08% and 26.86% and 18.94% and 9.63% and 5.67% and 11.03% and 14.79% and 10.68% and 14.30% and 8.99% and 14.76% and 11.46% and 21.57% and 24.84% and 24.00% and 22.20% and 24.47% and 13.87% and 20.10% and 16.83%
blocked proteolytic activity in the gingival pocket fluid, humans [7]: about 85%
elimination of bacteria from an infected area (Porphyromonas gingivalis): up to 50%
toxicity relative to 0.02% chlorhexidine (chicken embryo): about 105 times lower
change of gingipain activity in gingival pocket fluids ([8]; 4 weeks cystatin in water and gum rubbing 3-4 times a day, sampled after 3 months): reduced almost five-fold
tartar build-up and gum redness ([8]; after 3 months): no tartar build-up or redness in the gums
